Assay results published in the supplement of paper PMC9170038.

Test system: MS2 coat protein
Experiment: apparent KD of MS2 coat protein; designed switch direction (-1 OFF switch, 1 ON switch): -1; higher = weaker reporter binding
How it was run: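 The buffer was Tris-HCl pH 7.5 with KCl, MgCl2, BSA, DTT, tRNA and Tween-20. In it, SNAP-549-labelled MS2 coat protein was titrated in doubling steps from 0.7 or 1.5 nM to 3 µM over chip-bound RNA switches transcribed by stalled E. coli RNA polymerase on Illumina chips. Apparent KD is the per-design median over clusters of curve fits to normalised fluorescence.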

[1] = input ligand: microRNA oligo, concentration not stated
[2] = Eterna round: R95, input ligand: FMN 200 uM
[3] = Eterna round: R95, input ligand: microRNA oligo, concentration not stated
[4] = Eterna round: R95, input ligand: none

Sequence	apparent KD of MS2 coat protein (input ligand: FMN 200 uM) [nM]	apparent KD of MS2 coat protein [1] [nM]	apparent KD of MS2 coat protein (input ligand: none) [nM]	also measured
UACAUGAGGAUCACCCAUGUUUUGUCGUGUAUGGUAUUUAUCUAGGAUAUCAAUCUAAUUAUUUAUGAGAAGGAGAAUAUUAAU [JMF's solution 50] (Eterna round: R96, puzzle: Exclusion NG 3)	47.9	31.2	42.4	–
UACAUGAGGAUCACCCAUGUUUUGUCGUGUAUGGUAUUUAUCUAGGAUAUCAAUCUAUUUAUGUAUGAGAAGGAGAAUAUUAAU [JMF's solution 55] (Eterna round: R96, puzzle: Exclusion NG 3)	42.3	28.9	41.1	–
UACAUGAGGAUCACCCAUGUUUUGUCGUGUAUGGUAUUUAUCUAGGAUAUCAAUUUGGUUAUUUAUGAGAAGGAGAAUAUUAAU [JMF's solution 66] (Eterna round: R96, puzzle: Exclusion NG 3)	48.9	31.6	37.2	–
UACAUGAGGAUCACCCAUGUUUUGUCGUGUAUGGUAUUUAUCUAGGAUAUCAUUUGAUUUAUUUAUGAGAAGGAGAAUAUUAAU [JMF's solution 100] (Eterna round: R96, puzzle: Exclusion NG 3)	34.3	28.1	29.8	–
UACAUGAGGAUCACCCAUGUUUUGUCGUGUAUGGUAUUUAUCUAGGAUAUCAUUUUAUUUAGUUAUGAGAAGGAGAAUAUUAAU [JMF's solution 79] (Eterna round: R96, puzzle: Exclusion NG 3)	–	36.1	–	–
UACAUGAGGAUCACCCAUGUUUUGUCGUGUAUGGUAUUUAUCUAGGAUAUCAUUUUAUUUAUUUAUGAGAAGGAGAAUAUUAAU [JMF's solution 6] (Eterna round: R96, puzzle: Exclusion NG 3)	49.4	27	37.2	–
UACCGGCGGACCGAAGCUUUUUGCUUGUCUUAUACUACAACAUGAGGAUCACCCAUGUGGUGGUGGUCCGUUGUAGU [JL ViennaUCT Bitein mod 2] (puzzle: Sensor v3, turn-off variant 2)	–	–	–	apparent KD of MS2 coat protein [2]: 54.4 nM; apparent KD of MS2 coat protein [3]: 17.8 nM; apparent KD of MS2 coat protein [4]: 47.3 nM
UACCUGAGGCAAAGCUUUAGGUAAACAUGAGGAUCACCCAUGUAGGAUAUGGUAGGCUUUGCUUACCAGAAGGACAUGUUAAUU [Mat - Exclusion NG 3 - Mod of JL - D33] (Eterna round: R96, puzzle: Exclusion NG 3)	215	41.9	59.7	–
UACUUCCGAGGAUAUACAUGAGGAUCACCCAUGUGCUUCAGCAUUGAAAGAUGCAUGGGUAGAAGGCGGUAGUU [LRO-Excl3-18] (puzzle: Exclusion 3)	–	–	–	apparent KD of MS2 coat protein [2]: 253 nM; apparent KD of MS2 coat protein [3]: 297 nM; apparent KD of MS2 coat protein [4]: 171 nM
UACUUCUGAGGAUAUACAUAGAUUUACAUGAGGAUCACCCAUGUUCCUCUAUGUAUAAAUGUAGAAGGCAGAAGAU [Mat - Exclusion 5 - JL Mod - D61] (Eterna round: R97, puzzle: Exclusion 5)	87.8	–	16.7	–
UAGAUACAUGAGGAUCACCCAUGUGAGGAUAUGAAUAAGAAUAGAUAAGAUAGUAGAAUCAGAAGGCACAAUGG [Starry Exclusion 1.2] (puzzle: Exclusion 1)	–	–	–	apparent KD of MS2 coat protein [2]: 70.1 nM; apparent KD of MS2 coat protein [3]: 47.4 nM; apparent KD of MS2 coat protein [4]: 51.8 nM
UAGAUACAUGAGGAUCACCCAUGUGAGGAUAUGAGAAUUAUAUUAAAUGAAUGAAUUUUCAGAAGGCACAAAGG [JR_Ex1_Sub051] (Eterna round: R97, puzzle: Exclusion 1)	482	–	221	–
UAGAUACAUGAGGAUCACCCAUGUGAGGAUAUGAGGGUUAGCUUAAAUGGGCUGACUUUCAGAAGGCACAAGAA [JR_Ex1_Sub057] (Eterna round: R97, puzzle: Exclusion 1)	94.7	–	43	–
UAGCAACGAGGAUAUGCGGGCCUGAACCUAAAGUCGACCUUACAUGAGGAUCACCCAUGUAGAAGGCGUAGUGU [Eternabot (L2) Solution 71] (Eterna round: R97, puzzle: Exclusion 2)	16.8	–	18.3	–
UAGCAGAGAGGAUAUACAUUCAUCACCCGCGCAUCAUGCGCACAUGAGGAUCACCCAUGUAGAAGGCUCGUGCC [EX2 C.27] (Eterna round: R97, puzzle: Exclusion 2)	74.3	–	28.2	–
UAGGAGAGAGUGAGGAUAUCCGGAAGAGAGGAUCAGGAGAAGGCACAUGAGGAUCACCCAUGUAAAAGAGGGAA [I think I solved risk of not working] (Eterna round: R97, puzzle: Brourd's mod of Exclusion 4)	63.5	–	51.9	–
UAGGAGCAAGGAUAUACGAGGAUAUGGUAGUUUGUAGAGUGACAUGAGGAUCACCCAUGUAGAAGGUGCGUGUG [JR_Exclu2_Sub0100] (puzzle: Exclusion 2)	–	–	–	apparent KD of MS2 coat protein [3]: 82.9 nM

Sequence	apparent KD of MS2 coat protein (input ligand: FMN 200 uM) [nM]	apparent KD of MS2 coat protein [1] [nM]	apparent KD of MS2 coat protein (input ligand: none) [nM]	also measured
UAGGUGUGAGGAUAUGGUAAAGAAAAGAUGAUGAAAGAACUCCAGAAGGCACAUGAGGAUCACCCAUGUAGAUG [Mat - Exclusion 4 - Mod of JL - D32] (puzzle: Exclusion 4)	–	–	–	apparent KD of MS2 coat protein [3]: 28.7 nM
UAGUACCAAGGAUAUGCGUGACCAUGGCCUCCGUGGUAGAGACAUGAGGAUCACCCAUGUAGAAGGUGGAUAAC [Eternabot (L1) Solution 74] (Eterna round: R97, puzzle: Exclusion 2)	401	–	335	–
UAGUUAUUCACAGGAUAUCGCCUCUUAUUACAUGAGGAUCACCCAUGUUUAUUUUGUUACAUGUUCGAGAAGGGUGUAGCCGUU [JR_ExcNG2_Sub045] (Eterna round: R96, puzzle: Exclusion NG 2)	–	258	–	–
UAUAAUACAUAGGAUAUCGAAAUAAUCAUUUAACGAGAAGGAUGAACAUGAGGAUCACCCAUGUGGUAUCAUGG [Mat - Exclusion 6 - JL Mod - D11] (puzzle: Exclusion 6)	–	–	–	apparent KD of MS2 coat protein [2]: 379 nM; apparent KD of MS2 coat protein [3]: 328 nM; apparent KD of MS2 coat protein [4]: 319 nM
UAUAGACAUGAGGAUCACCCAUGUGAGGAUAUGUACAACAACAAGCCGGAAGCGGAAUACAGAAGGCACAAAUA [JR_Exclusion1_Sub029] (puzzle: Exclusion 1)	–	–	–	apparent KD of MS2 coat protein [2]: 36.8 nM; apparent KD of MS2 coat protein [3]: 35.7 nM; apparent KD of MS2 coat protein [4]: 51.4 nM
UAUAGGCGAGGAUAUACUAACAAACGGAUCGCCAAACAAGAACUUGAGGAUCACCCAAGUAGAAGGCGCAAUUG [Gezaonsoma] (Eterna round: R97, puzzle: Exclusion 2)	15.8	–	24.1	–
UAUAUAUAGUAAGGAUAUGUAAUUACUUUAUAAACAGAAGGUACUGACAUGAGGAUCACCCAUGUUUUAGUGUGGGCAUGUAGA [JMF's solution 37] (Eterna round: R96, puzzle: Exclusion NG 1)	–	70.1	–	–
UAUAUAUAGUAAGGAUAUGUAAUUAUUUGAUAAACAGAAGGUACUGACAUGAGGAUCACCCAUGUUUUAGUGUGGGCAUGUAGA [JMF's solution 42] (Eterna round: R96, puzzle: Exclusion NG 1)	–	72.7	–	–
UAUAUAUAGUAAGGAUAUGUAUAUAGUUUAUAAACAGAAGGUACUGACAUGAGGAUCACCCAUGUUUUAGUGUGGGCAUGUAGA [JMF's solution 56] (Eterna round: R96, puzzle: Exclusion NG 1)	–	61.3	–	–
UAUAUAUAGUAAGGAUAUGUAUAUAUUUAAUAAACAGAAGGUACUGACAUGAGGAUCACCCAUGUUUUAGUGUGGGCAUGUAGA [JMF's solution 63] (Eterna round: R96, puzzle: Exclusion NG 1)	–	59.9	–	–
UAUAUAUAGUAAGGAUAUGUAUUAAUUUUAGAAACAGAAGGUACUGACAUGAGGAUCACCCAUGUUUUAGUGUGGGCAUGUAGA [JMF's solution 88] (Eterna round: R96, puzzle: Exclusion NG 1)	–	75.7	–	–
UAUAUAUAGUAAGGAUAUGUAUUUAUUUAAUAAACAGAAGGUACUGACAUGAGGAUCACCCAUGUUUUAGUGUGGGCAUGUAGA [JMF's solution 19] (Eterna round: R96, puzzle: Exclusion NG 1)	–	66.3	–	–
UAUAUGUCAGGAUAUCGAUUAGAACAGAAUUUAACAAUAGUCGAGAAGGGACAUGAGGAUCACCCAUGUUCAAC [JR_Ex4_Sub021] (Eterna round: R97, puzzle: Exclusion 4)	41.7	–	20.5	–
UAUAUGUUAGGAUAUUAGUAGUAAAUAAAUAAAAUUAUUACUGAGAAGGGACAUGAGGAUCACCCAUGUACCUC [Salish 062 v33] (Eterna round: R97, puzzle: Exclusion 4)	21.9	–	12.7	–
UAUGGGUGUGUGAGGAUAUACGAAGGCAGUGGCCAGUAGAAGGUACAUGAGGAUCACCCAUGUGUCCAAAAGUG [Isonge] (puzzle: Brourd's mod of Exclusion 4)	–	–	–	apparent KD of MS2 coat protein [3]: 13.9 nM
UAUGGUUAAGUCAGGAUAUACUCAUAGAAGUCUGUGUAGAAGGGACAUGAGGAUCACCCAUGUAUGGUAGUGUU [Ex4 #47] (Eterna round: R97, puzzle: Brourd's mod of Exclusion 4)	151	–	159	–
UAUGUGUCAGGAUAUUAAUUAGAACAGAAUUUAACAAUAAUUAAGAAGGGACAUGAGGAUCACCCAUGUUCAUC [JR_Ex4_Sub023] (Eterna round: R97, puzzle: Exclusion 4)	27.9	–	23.3	–
